In this assay the target is T1, beta-catenin (Homo sapiens, UniProt P35222).
T1 construct: made in house; host or cells: E. coli BL21 (DE3) pLysS
T1 sequence (P35222 134-665): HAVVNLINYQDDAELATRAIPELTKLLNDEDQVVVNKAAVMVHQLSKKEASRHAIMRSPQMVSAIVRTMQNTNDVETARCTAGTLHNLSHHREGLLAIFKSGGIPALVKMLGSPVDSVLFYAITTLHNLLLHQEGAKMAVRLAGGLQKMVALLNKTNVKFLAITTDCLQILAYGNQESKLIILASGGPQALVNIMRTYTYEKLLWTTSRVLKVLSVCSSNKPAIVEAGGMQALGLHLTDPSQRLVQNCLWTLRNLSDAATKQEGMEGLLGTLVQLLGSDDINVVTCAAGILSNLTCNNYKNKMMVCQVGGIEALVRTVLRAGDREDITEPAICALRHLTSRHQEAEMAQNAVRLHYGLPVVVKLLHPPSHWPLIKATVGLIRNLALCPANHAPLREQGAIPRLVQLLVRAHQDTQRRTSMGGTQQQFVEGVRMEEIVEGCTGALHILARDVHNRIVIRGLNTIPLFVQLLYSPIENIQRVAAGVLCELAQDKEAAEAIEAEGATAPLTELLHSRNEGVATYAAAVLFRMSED
In words: Phage Library Screening with NGS, beta-catenin. The format is binding. As to conditions: for Target Concentration 10 (phage screen NGS readout): beta-catenin target concentration 10; for Target Concentration 10 (phage screen NGS readout) / Target Concentration 30 (phage screen NGS readout) / Target Concentration 100 (phage screen NGS readout) / Target Concentration 300 (phage screen NGS readout): no competitor; for Target Concentration 30 (phage screen NGS readout): beta-catenin target concentration 30; for Target Concentration 100 (phage screen NGS readout): beta-catenin target concentration 100; for Target Concentration 300 (phage screen NGS readout): beta-catenin target concentration 300; for Target Concentration 1000 (phage screen NGS readout): beta-catenin target concentration 1000.

For the sequence DPAEFYCEMAAVHCELL, the “Target Concentration 10 (phage screen NGS readout)” value is reported as 2, the “Target Concentration 30 (phage screen NGS readout)” value amounted to 1, the “Target Concentration 100 (phage screen NGS readout)” value was 17 and the “Target Concentration 300 (phage screen NGS readout)” value is listed as 99. Also, the “Target Concentration BLANK (phage screen NGS readout)” value (shortened to “Target Concentration BLANK”) (first column) was 0. Also, the “Target Concentration BLANK” value (fourth column) is listed as 0. For the same sequence, under “second column”, the “Target Concentration BLANK” value was found to be 0. Moreover, the “Target Concentration BLANK” value (third column) was determined as 0. In addition, the “Target Concentration 1000 (phage screen NGS readout)” value (first 1000 column) is 61. Moreover, the “Target Concentration 1000 (phage screen NGS readout)” value (second 1000 column) was 107.
For DPAHWRCEHAALLCWYN, the “Target Concentration 10 (phage screen NGS readout)” value was found to be 13, the “Target Concentration 30 (phage screen NGS readout)” value amounted to 6, the “Target Concentration 100 (phage screen NGS readout)” value came to 51 and the “Target Concentration 300 (phage screen NGS readout)” value is 132. Under “first column”, the “Target Concentration BLANK” value amounted to 0. For the same sequence, the “Target Concentration BLANK” value (fourth column) is 0. In addition, the “Target Concentration BLANK” value (second column) is 0. Besides, under “third column”, the “Target Concentration BLANK” value was determined as 2. Moreover, the “Target Concentration 1000 (phage screen NGS readout)” value (first 1000 column) was 140. Besides, the “Target Concentration 1000 (phage screen NGS readout)” value (second 1000 column) turned out to be 149.
For DPADYDCILAAHICTNI, the “Target Concentration 10 (phage screen NGS readout)” value worked out at 2, the “Target Concentration 30 (phage screen NGS readout)” value stood at 18, the “Target Concentration 100 (phage screen NGS readout)” value is reported as 70 and the “Target Concentration 300 (phage screen NGS readout)” value came to 147. The “Target Concentration BLANK” value (first column) is recorded as 0. Besides, the “Target Concentration BLANK” value (fourth column) amounted to 0. The “Target Concentration BLANK” value (second column) was determined as 0. The “Target Concentration BLANK” value (third column) came out at 0. The “Target Concentration 1000 (phage screen NGS readout)” value (first 1000 column) is recorded as 118. Moreover, the “Target Concentration 1000 (phage screen NGS readout)” value (second 1000 column) is 122.
Regarding DPADNECILAAHICTLA, the “Target Concentration 10 (phage screen NGS readout)” value stood at 0, the “Target Concentration 30 (phage screen NGS readout)” value is given as 5, the “Target Concentration 100 (phage screen NGS readout)” value worked out at 24 and the “Target Concentration 300 (phage screen NGS readout)” value stood at 36. For the same sequence, the “Target Concentration BLANK” value (first column) turned out to be 0. In addition, the “Target Concentration BLANK” value (fourth column) amounted to 0. In addition, the “Target Concentration BLANK” value (second column) is given as 0. In addition, the “Target Concentration BLANK” value (third column) stood at 0. Where the note is “first 1000 column”, the “Target Concentration 1000 (phage screen NGS readout)” value was found to be 45. Also, where the note is “second 1000 column”, the “Target Concentration 1000 (phage screen NGS readout)” value is reported as 30.
On to DPAFLDCHIAAWTCNEF, for which the “Target Concentration 10 (phage screen NGS readout)” value came out at 0, the “Target Concentration 30 (phage screen NGS readout)” value is 1, the “Target Concentration 100 (phage screen NGS readout)” value came to 10 and the “Target Concentration 300 (phage screen NGS readout)” value worked out at 15. Under “first column”, the “Target Concentration BLANK” value stood at 0. The “Target Concentration BLANK” value (fourth column) is listed as 0. In addition, under “second column”, the “Target Concentration BLANK” value came to 0. Under “third column”, the “Target Concentration BLANK” value was 0. The “Target Concentration 1000 (phage screen NGS readout)” value (first 1000 column) was found to be 28. Under “second 1000 column”, the “Target Concentration 1000 (phage screen NGS readout)” value turned out to be 15.
DPAEVDCIMAAHICVWD: the “Target Concentration 10 (phage screen NGS readout)” value is given as 0, the “Target Concentration 30 (phage screen NGS readout)” value was determined as 0, the “Target Concentration 100 (phage screen NGS readout)” value was 31 and the “Target Concentration 300 (phage screen NGS readout)” value stood at 42. Also, where the note is “first column”, the “Target Concentration BLANK” value is reported as 0. In addition, the “Target Concentration BLANK” value (fourth column) is 0. In addition, the “Target Concentration BLANK” value (second column) turned out to be 0. Moreover, the “Target Concentration BLANK” value (third column) is listed as 0. The “Target Concentration 1000 (phage screen NGS readout)” value (first 1000 column) was 40. For the same sequence, the “Target Concentration 1000 (phage screen NGS readout)” value (second 1000 column) came out at 51.
On to DPAVLECHIAAWECRMD, for which the “Target Concentration 10 (phage screen NGS readout)” value was 0, the “Target Concentration 30 (phage screen NGS readout)” value worked out at 0, the “Target Concentration 100 (phage screen NGS readout)” value is 24 and the “Target Concentration 300 (phage screen NGS readout)” value is 83. Also, the “Target Concentration BLANK” value (first column) is 0. The “Target Concentration BLANK” value (fourth column) is 0. Also, the “Target Concentration BLANK” value (second column) was determined as 0. In addition, where the note is “third column”, the “Target Concentration BLANK” value came to 0. The “Target Concentration 1000 (phage screen NGS readout)” value (first 1000 column) was found to be 91. In addition, the “Target Concentration 1000 (phage screen NGS readout)” value (second 1000 column) is given as 45.
On to DPAYWVCEHAALLCTDY, for which the “Target Concentration 10 (phage screen NGS readout)” value amounted to 5, the “Target Concentration 30 (phage screen NGS readout)” value was 18, the “Target Concentration 100 (phage screen NGS readout)” value was 85 and the “Target Concentration 300 (phage screen NGS readout)” value was 337. The “Target Concentration BLANK” value (first column) was 3. Besides, where the note is “fourth column”, the “Target Concentration BLANK” value was determined as 0. Also, the “Target Concentration BLANK” value (second column) was found to be 3. Besides, the “Target Concentration BLANK” value (third column) came out at 1. Further, the “Target Concentration 1000 (phage screen NGS readout)” value (first 1000 column) was found to be 283. Further, the “Target Concentration 1000 (phage screen NGS readout)” value (second 1000 column) was found to be 227.
On to DPAFLTCHIAAWACSEQ, for which the “Target Concentration 10 (phage screen NGS readout)” value was 0, the “Target Concentration 30 (phage screen NGS readout)” value is on record as 1, the “Target Concentration 100 (phage screen NGS readout)” value stood at 21 and the “Target Concentration 300 (phage screen NGS readout)” value stood at 15. Besides, the “Target Concentration BLANK” value (first column) worked out at 0. Besides, the “Target Concentration BLANK” value (fourth column) is 0. The “Target Concentration BLANK” value (second column) turned out to be 2. Also, the “Target Concentration BLANK” value (third column) is 1. The “Target Concentration 1000 (phage screen NGS readout)” value (first 1000 column) worked out at 52. For the same sequence, the “Target Concentration 1000 (phage screen NGS readout)” value (second 1000 column) is on record as 25.
Take DPAMWICEHAALNCEIR: the “Target Concentration 10 (phage screen NGS readout)” value is recorded as 2, the “Target Concentration 30 (phage screen NGS readout)” value was 6, the “Target Concentration 100 (phage screen NGS readout)” value was 46 and the “Target Concentration 300 (phage screen NGS readout)” value turned out to be 158. Further, where the note is “first column”, the “Target Concentration BLANK” value turned out to be 0. The “Target Concentration BLANK” value (fourth column) was determined as 0. Under “second column”, the “Target Concentration BLANK” value was determined as 0. Moreover, the “Target Concentration BLANK” value (third column) is 0. Also, the “Target Concentration 1000 (phage screen NGS readout)” value (first 1000 column) was 145. Besides, the “Target Concentration 1000 (phage screen NGS readout)” value (second 1000 column) came out at 152.
As to DPAFESCFLAAHICYWE, the “Target Concentration 10 (phage screen NGS readout)” value was determined as 2, the “Target Concentration 30 (phage screen NGS readout)” value is given as 0, the “Target Concentration 100 (phage screen NGS readout)” value is on record as 10 and the “Target Concentration 300 (phage screen NGS readout)” value was determined as 7. Further, the “Target Concentration BLANK” value (first column) stood at 0. In addition, for the setting “fourth column”, the “Target Concentration BLANK” value is recorded as 0. The “Target Concentration BLANK” value (second column) is recorded as 0. Besides, the “Target Concentration BLANK” value (third column) stood at 0. Moreover, the “Target Concentration 1000 (phage screen NGS readout)” value (first 1000 column) worked out at 18. The “Target Concentration 1000 (phage screen NGS readout)” value (second 1000 column) turned out to be 16.
As to DPAEWICEHAALLCSVL, the “Target Concentration 10 (phage screen NGS readout)” value stood at 0, the “Target Concentration 30 (phage screen NGS readout)” value is given as 0, the “Target Concentration 100 (phage screen NGS readout)” value is reported as 11 and the “Target Concentration 300 (phage screen NGS readout)” value is recorded as 33. Further, the “Target Concentration BLANK” value (first column) is 0. Besides, the “Target Concentration BLANK” value (fourth column) worked out at 0. Besides, the “Target Concentration BLANK” value (second column) was 0. For the same sequence, the “Target Concentration BLANK” value (third column) was determined as 0. Under “first 1000 column”, the “Target Concentration 1000 (phage screen NGS readout)” value is on record as 33. Also, where the note is “second 1000 column”, the “Target Concentration 1000 (phage screen NGS readout)” value is on record as 27.
In the case of DPAEWYCEHAALVCTNH, the “Target Concentration 10 (phage screen NGS readout)” value turned out to be 0, the “Target Concentration 30 (phage screen NGS readout)” value is 12, the “Target Concentration 100 (phage screen NGS readout)” value came out at 47 and the “Target Concentration 300 (phage screen NGS readout)” value came out at 156. In addition, under “first column”, the “Target Concentration BLANK” value came out at 2. The “Target Concentration BLANK” value (fourth column) came to 1. Moreover, the “Target Concentration BLANK” value (second column) is listed as 0. The “Target Concentration BLANK” value (third column) is given as 0. The “Target Concentration 1000 (phage screen NGS readout)” value (first 1000 column) came to 148. Under “second 1000 column”, the “Target Concentration 1000 (phage screen NGS readout)” value worked out at 155.
Regarding DPARHECILAAHICEWE, the “Target Concentration 10 (phage screen NGS readout)” value came to 41, the “Target Concentration 30 (phage screen NGS readout)” value is given as 151, the “Target Concentration 100 (phage screen NGS readout)” value came out at 612 and the “Target Concentration 300 (phage screen NGS readout)” value is given as 1704. Besides, the “Target Concentration BLANK” value (first column) was 1. Further, the “Target Concentration BLANK” value (fourth column) stood at 0. The “Target Concentration BLANK” value (second column) is 2. Further, the “Target Concentration BLANK” value (third column) amounted to 2. Also, the “Target Concentration 1000 (phage screen NGS readout)” value (first 1000 column) is 1683. For the same sequence, under “second 1000 column”, the “Target Concentration 1000 (phage screen NGS readout)” value is 1509.

Values taken from patent publication US20240376151A1, “STAPLED PEPTIDES AND METHODS THEREOF” (FOG PHARMACEUTICALS, INC., priority 2022, published 2024).
